Experimental data: patent US20240408238

Test system: AcrIIC5Smu

Substance: Nme1Cas9-Nme2Cas9PID chimera (Nme1Cas9 with its PID replaced by that of Nme2Cas9)
- in vitro DNA cleavage by the PID-swapped chimera in the presence of Acr (10-fold ratio; ~30x higher Cas9 concentration): No inhibition was observed by AcrIIC5Smu on this protein chimera
